We go through 8 molecules from US20070207967A1 (CTT CANCER TARGETING TECHNOLOGIES, published 2007).

Ends that are not written are not given here.

To fix the notation:
B1: pro-MMP-9 (purified human pro-matrix metalloproteinase-9) (enzyme, UniProt P14780 20-707, looked up)
chain: APRQRQSTLVLFPGDLRTNLTDRQLAEEYLYRYGYTRVAEMRGESKSLGPALLLLQKQLSLPETGELDSATLKAMRTPRCGVPDLGRFQTFEGDLKWHHHNITYWIQNYSEDLPRAVIDDAFARAFALWSAVTPLTFTRVYSRDADIVIQFGVAEHGDGYPFDGKDGLLAHAFPPGPGIQGDAHFDDDELWSLGKGVVVPTRFGNADGAACHFPFIFEGRSYSACTTDGRSDGLPWCSTTANYDTDDRFGFCPSERLYTQDGNADGKPCQFPFIFQGQSYSACTTDGRSDGYRWCATTANYDRDKLFGFCPTRADSTVMGGNSAGELCVFPFTFLGKEYSTCTSEGRGDGRLWCATTSNFDSDKKWGFCPDQGYSLFLVAAHEFGHALGLDHSSVPEALMYPMYRFTEGPPLHKDDVNGIRHLYGPRPEPEPRPPTTTTPQPTAPPTVCPTGPPTVHPSERPTAGPTGPPSAGPTGPPTAGPSTATTVPLSPVDDACNVNIFDAIAEIGNQLYLFKDGKYWRFSEGRGSRPQGPFLIADKWPALPRKLDSVFEERLSKKLFFFSGRQVWVYTGASVLGPRRLDKLGLGADVAQVTGALRSGRGKMLLFSGRRLWRFDVKAQMVDPRSASEVDRMFPGVPLDTHDVFQYREKAYFCQDRFYWRVSSRSELNQVDQVGYVTYDILQCPED
notes: Purified proenzyme in plate assays; endogenous pro-MMP-9 of HT1080 and THP-1 cells in the co-immunoprecipitations
B2: fibronectin-derived peptide TTPNSLLVSWQPPRARIT (peptide)
peptide: TTPNSLLVSWQPPRARIT
notes: Synthesized on a cellulose membrane (pepspot); also called PPC-like fibronectin peptide
B3: PPC peptide-bearing phage (CGYGRFSPPC displayed on phage) (peptide)
peptide: CGYGRFSPPC
modifications: cysteine pairing not given here; also: displayed on phage
notes: also called PPC phage; phage carrying PPC
B4: MMP-9 collagen binding domain (CBD), amino acids Gly204-Gly373 (other, UniProt P14780 223-392, looked up)
chain: GNADGAACHFPFIFEGRSYSACTTDGRSDGLPWCSTTANYDTDDRFGFCPSERLYTQDGNADGKPCQFPFIFQGQSYSACTTDGRSDGYRWCATTANYDRDKLFGFCPTRADSTVMGGNSAGELCVFPFTFLGKEYSTCTSEGRGDGRLWCATTSNFDSDKKWGFCPDQG
modifications: biotinylated with sulfo-NHS-LC-biotin in some experiments
notes: range 223-392; Vector-derived residues (start Met from the NdeI site) not described further; also called recombinant CBD; biotinylated CBD
B5: integrin β5 I-EGF2+3 fragment (Glu476-Asn563) with N-terminal His6-tag (receptor, UniProt P18084 499-586, looked up)
chain: ECQDGENQSVYQNLCREAEGKPLCSGRGDCSCNQCSCFESEFGKIYGPFCECDNFSCARNKGVLCSGHGECHCGECKCHAGYIGDNCN
modifications: biotinylated where used as the labelled ligand
notes: range 476-563; also called I-EGF2+3 fragment of β5 integrin; biotinylated β5 I-EGF2+3; not shown: N-terminal His6-tag from the pHAT2 vector
B6: CRV phage (CRVYGPYLLC displayed on phage) (peptide)
peptide: CRVYGPYLLC
modifications: cysteine pairing not given here; also: displayed on phage as coat protein fusion
notes: also called phage carrying CRV

For data set [1], the target named is T1, αVβ3 integrin of HT1080 cells (human, UniProt P06756 31-1048; P05106 27-788).
T1 construct: whole, on cells
Kind of data set: immunoprecipitation with anti-integrin antisera, western blot for MMP-9. A general note: In western blotting, separated proteins are transferred to a membrane and probed.

Another data set addresses platelet integrin αIIbβ3 (UniProt P08514 32-1039; P05106 27-788). The data set can be described thus: pro-MMP-9 on immobilized integrin, read out by biotinylated gelatin.
The target in data set [2] is B1. Kind of data set: phage display selection; table of pro-MMP-9 binding peptide sequences, group I CBD-binding.
Data set [3] has as its target B4. The data set can be described thus: pepspot membrane assay, chemiluminescence.
Data set [4] concerns the target B1. Kind of data set: phage display selection; table of pro-MMP-9 binding peptide sequences, group I CBD-binding; (6) is the number of isolated phage.
Data set [5] addresses T2, urea-denaturated human plasma vitronectin (human, UniProt P04004 20-478).
T2 construct: also called VN
Kind of data set: solid phase binding assay (discussion).

Data set [6] deals with T2, urea-denaturated human plasma …. Kind of data set: solid phase assay, streptavidin-peroxidase.
Data set [7] has as its target B4. The data set can be described thus: solid phase assay, streptavidin-peroxidase.
Data set [8] concerns the molecule itself. Kind of data set: solid phase assay, streptavidin-peroxidase.
Data set [9] has as its target T3, pro-MMP-9-ΔHC (Ala1-Gly424), pro-MMP-9 lacking the hinge region and the C domain (UniProt P14780 20-444).
T3 construct: range 20-444
Kind of data set: phage binding assay (not shown).

A further data set has as its target pro-MMP-3 (UniProt P08254 18-477, limits assumed). The data set can be described thus: phage binding assay.
The target in data set [10] is B4. Kind of data set: phage binding assay.
The target of the next data set is T4, pro-MMP-2 (UniProt P08253 30-660, limits assumed).
T4 sequence (looked up): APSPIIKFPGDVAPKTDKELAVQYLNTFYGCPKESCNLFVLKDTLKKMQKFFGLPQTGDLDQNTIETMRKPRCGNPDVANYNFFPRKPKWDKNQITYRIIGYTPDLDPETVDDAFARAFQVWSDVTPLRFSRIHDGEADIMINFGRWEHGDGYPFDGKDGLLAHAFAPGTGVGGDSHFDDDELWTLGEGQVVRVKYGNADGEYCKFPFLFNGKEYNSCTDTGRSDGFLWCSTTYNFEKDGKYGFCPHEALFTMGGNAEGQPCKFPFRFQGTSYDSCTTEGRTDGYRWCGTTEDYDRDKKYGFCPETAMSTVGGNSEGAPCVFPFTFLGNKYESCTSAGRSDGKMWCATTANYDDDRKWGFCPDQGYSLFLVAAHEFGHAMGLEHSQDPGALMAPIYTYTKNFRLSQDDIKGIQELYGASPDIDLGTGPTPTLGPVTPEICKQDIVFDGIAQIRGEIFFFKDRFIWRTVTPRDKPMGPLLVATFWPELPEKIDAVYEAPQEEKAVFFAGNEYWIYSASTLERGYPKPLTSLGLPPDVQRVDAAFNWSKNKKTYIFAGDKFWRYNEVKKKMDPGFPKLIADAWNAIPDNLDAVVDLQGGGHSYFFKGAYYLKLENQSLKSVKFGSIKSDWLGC
The data set can be described thus: phage binding assay.

T2 sequence (P04004 20-478 limits assumed): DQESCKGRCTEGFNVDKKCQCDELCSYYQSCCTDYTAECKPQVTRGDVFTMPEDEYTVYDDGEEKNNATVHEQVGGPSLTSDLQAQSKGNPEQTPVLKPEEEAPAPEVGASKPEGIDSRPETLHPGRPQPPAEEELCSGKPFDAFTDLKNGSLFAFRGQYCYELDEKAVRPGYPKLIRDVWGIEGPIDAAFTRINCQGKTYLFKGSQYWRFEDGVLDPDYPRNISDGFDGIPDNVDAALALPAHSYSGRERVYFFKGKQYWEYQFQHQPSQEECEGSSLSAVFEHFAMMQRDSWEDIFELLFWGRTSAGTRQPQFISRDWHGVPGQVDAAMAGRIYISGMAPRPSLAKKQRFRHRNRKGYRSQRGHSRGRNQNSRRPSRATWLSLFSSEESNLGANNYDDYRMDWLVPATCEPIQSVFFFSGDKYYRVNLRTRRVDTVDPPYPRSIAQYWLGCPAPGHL
T1 sequence (P06756 31-1048, chain 1 of 2): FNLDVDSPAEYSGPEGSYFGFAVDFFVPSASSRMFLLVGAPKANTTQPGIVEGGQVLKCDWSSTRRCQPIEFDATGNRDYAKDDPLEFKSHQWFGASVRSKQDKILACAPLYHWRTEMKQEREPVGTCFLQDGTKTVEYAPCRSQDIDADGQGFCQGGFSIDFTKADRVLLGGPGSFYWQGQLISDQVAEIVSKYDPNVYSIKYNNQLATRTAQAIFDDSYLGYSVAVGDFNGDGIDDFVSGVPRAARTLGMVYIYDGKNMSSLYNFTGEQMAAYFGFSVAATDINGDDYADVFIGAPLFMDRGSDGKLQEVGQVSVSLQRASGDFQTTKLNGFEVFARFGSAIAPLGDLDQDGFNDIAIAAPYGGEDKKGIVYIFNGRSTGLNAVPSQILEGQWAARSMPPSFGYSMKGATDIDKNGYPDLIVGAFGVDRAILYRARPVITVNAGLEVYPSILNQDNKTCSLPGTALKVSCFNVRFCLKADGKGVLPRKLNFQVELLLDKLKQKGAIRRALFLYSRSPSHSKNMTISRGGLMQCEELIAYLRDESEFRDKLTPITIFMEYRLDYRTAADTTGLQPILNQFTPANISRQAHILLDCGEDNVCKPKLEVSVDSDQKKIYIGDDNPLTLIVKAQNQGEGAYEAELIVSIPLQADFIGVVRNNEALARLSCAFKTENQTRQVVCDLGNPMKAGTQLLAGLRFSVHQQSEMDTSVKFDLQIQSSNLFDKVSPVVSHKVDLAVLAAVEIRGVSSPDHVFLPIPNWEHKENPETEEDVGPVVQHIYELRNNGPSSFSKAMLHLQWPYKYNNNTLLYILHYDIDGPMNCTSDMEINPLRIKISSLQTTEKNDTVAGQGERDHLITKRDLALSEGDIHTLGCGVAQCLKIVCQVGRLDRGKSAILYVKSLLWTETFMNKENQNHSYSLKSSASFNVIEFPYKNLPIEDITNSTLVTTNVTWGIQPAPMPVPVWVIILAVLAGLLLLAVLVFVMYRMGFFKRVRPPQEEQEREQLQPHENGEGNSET
T1 sequence (P05106 27-788, chain 2 of 2): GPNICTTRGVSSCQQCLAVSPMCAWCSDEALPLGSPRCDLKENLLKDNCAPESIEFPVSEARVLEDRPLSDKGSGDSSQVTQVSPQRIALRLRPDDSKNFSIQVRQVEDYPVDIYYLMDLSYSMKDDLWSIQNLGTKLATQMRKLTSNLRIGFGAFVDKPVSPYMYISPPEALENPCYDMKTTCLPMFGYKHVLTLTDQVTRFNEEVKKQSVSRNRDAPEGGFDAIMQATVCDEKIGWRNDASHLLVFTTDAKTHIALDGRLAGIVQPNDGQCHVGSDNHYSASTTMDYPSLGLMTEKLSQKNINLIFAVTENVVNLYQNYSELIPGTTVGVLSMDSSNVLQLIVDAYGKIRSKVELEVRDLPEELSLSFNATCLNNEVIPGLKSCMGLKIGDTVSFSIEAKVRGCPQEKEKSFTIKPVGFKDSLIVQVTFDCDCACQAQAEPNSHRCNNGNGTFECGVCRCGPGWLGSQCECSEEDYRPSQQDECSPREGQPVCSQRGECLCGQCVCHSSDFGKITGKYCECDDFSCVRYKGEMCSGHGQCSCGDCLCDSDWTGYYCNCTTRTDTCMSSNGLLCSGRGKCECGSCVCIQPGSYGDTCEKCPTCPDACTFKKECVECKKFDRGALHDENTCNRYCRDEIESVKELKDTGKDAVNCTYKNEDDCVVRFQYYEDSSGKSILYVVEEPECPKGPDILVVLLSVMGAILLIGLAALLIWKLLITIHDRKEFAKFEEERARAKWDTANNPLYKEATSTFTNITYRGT
Sequence of pro-MMP-3 (P08254 18-477 limits assumed): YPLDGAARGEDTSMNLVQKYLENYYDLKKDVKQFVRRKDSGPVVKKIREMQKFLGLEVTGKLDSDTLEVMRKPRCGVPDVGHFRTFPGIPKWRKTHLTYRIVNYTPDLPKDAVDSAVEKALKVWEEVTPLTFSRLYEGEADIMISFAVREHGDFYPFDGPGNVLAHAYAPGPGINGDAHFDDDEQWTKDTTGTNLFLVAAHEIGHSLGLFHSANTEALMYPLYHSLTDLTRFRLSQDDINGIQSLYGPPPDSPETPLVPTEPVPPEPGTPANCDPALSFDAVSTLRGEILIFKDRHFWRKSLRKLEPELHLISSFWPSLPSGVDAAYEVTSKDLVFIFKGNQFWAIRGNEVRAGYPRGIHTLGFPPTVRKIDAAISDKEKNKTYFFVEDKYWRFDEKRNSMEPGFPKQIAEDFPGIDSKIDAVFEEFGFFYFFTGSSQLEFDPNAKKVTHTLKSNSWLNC
Sequence of platelet integrin αIIbβ3 (P08514 32-1039, chain 1 of 2): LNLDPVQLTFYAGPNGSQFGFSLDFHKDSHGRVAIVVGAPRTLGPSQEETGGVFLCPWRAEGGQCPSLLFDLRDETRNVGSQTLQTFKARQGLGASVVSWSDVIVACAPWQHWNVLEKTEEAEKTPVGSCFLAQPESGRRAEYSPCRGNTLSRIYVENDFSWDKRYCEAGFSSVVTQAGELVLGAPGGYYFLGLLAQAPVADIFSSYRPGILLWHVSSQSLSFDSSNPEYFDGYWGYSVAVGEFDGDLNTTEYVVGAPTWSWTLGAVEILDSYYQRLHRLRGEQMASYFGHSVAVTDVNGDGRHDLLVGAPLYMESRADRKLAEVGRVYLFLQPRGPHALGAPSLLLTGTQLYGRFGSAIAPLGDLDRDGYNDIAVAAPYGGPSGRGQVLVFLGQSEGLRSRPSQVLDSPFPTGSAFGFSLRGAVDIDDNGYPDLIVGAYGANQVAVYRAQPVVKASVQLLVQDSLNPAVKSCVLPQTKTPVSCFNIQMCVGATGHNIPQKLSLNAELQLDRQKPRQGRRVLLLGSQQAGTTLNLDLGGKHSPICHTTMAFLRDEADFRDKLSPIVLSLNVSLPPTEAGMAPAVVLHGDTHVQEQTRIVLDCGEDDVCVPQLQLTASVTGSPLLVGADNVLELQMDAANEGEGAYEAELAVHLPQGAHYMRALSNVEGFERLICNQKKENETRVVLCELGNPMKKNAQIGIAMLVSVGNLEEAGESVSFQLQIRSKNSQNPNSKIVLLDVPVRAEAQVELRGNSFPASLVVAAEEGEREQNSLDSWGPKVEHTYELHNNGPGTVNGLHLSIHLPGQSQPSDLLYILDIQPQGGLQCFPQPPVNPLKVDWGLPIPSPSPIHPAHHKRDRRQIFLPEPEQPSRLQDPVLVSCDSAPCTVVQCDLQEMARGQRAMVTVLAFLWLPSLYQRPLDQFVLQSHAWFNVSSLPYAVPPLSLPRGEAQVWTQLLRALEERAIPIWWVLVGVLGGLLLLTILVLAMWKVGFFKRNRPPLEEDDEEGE
Sequence of platelet integrin αIIbβ3 (P05106 27-788, chain 2 of 2): as the sequence (P05106 27-788, chain 2 of 2) above

Turning to B1, the binding result (in [1]; with platelet integrin αIIbβ3) was “no binding” throughout.

In the case of CGFGRWQPPC (cysteine pairing not given here; also: displayed on phage, selected by biopanning) [phage peptide CGFGRWQPPC], the binding result in [2] is listed as “binds”.

With B2, the binding result in data set [3] is “binds”.

As to B3, the binding result in data set [4] was “binds”.

Take B4: the binding result in data set [5] was “binds”.

Regarding CGWGRYSPPC (cysteine pairing not given here; also: displayed on phage, selected by biopanning) [phage peptide CGWGRYSPPC], in [2], the binding result is given as “binds”.

On to B5, for which the binding result in data set [6], in data set [7] and in data set [8] was “no binding (tested: biotinylated fragment 2.5 µg/ml)” throughout.

B6: the binding result in data set [9] was “no binding”; with pro-MMP-3, “no binding (tested: 20 ng/well; 10^8 transducing units/well)”; in [10], “no binding (tested: 20 ng/well; 10^8 transducing units/well)”; in the data set with pro-MMP-2 it was “no binding (tested: 20 ng/well; 10^8 transducing units/well)”.
